Reference: paper PMC4268010 (Molecular cell, 2014)
“And” between values parts separate entries of the source, which are not always exact repeats. Equal values may be shown once.

T1: His6-Flag-tagged Mph1 (budding yeast), P40562
T1 chain: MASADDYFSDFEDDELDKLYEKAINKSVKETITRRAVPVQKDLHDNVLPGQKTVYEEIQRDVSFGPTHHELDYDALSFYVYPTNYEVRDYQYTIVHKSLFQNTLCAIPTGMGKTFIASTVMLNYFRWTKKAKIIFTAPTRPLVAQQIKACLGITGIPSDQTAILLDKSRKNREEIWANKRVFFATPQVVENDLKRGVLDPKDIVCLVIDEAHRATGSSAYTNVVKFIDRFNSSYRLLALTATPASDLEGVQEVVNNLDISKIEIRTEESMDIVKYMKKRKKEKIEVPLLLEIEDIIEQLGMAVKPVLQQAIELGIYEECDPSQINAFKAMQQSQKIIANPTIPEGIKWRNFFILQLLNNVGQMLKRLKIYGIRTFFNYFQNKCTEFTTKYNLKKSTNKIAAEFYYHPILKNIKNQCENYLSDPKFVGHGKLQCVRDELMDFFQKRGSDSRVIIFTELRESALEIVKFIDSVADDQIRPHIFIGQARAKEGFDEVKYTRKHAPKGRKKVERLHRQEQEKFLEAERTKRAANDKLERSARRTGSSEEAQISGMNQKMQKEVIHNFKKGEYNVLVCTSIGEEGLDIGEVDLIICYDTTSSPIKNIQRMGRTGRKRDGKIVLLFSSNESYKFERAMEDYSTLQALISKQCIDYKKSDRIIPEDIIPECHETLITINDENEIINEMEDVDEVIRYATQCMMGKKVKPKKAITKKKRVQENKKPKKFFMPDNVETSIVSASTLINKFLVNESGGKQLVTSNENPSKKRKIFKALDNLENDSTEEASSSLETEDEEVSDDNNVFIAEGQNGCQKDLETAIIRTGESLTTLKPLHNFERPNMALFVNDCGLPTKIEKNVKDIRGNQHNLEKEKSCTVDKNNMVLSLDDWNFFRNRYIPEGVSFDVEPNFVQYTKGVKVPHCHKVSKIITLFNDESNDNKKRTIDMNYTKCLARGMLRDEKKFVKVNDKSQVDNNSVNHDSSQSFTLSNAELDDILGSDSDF

T2: Strep-tagged Smc5 (UniProt Q08204 1-1093)
T2 sequence (looked up): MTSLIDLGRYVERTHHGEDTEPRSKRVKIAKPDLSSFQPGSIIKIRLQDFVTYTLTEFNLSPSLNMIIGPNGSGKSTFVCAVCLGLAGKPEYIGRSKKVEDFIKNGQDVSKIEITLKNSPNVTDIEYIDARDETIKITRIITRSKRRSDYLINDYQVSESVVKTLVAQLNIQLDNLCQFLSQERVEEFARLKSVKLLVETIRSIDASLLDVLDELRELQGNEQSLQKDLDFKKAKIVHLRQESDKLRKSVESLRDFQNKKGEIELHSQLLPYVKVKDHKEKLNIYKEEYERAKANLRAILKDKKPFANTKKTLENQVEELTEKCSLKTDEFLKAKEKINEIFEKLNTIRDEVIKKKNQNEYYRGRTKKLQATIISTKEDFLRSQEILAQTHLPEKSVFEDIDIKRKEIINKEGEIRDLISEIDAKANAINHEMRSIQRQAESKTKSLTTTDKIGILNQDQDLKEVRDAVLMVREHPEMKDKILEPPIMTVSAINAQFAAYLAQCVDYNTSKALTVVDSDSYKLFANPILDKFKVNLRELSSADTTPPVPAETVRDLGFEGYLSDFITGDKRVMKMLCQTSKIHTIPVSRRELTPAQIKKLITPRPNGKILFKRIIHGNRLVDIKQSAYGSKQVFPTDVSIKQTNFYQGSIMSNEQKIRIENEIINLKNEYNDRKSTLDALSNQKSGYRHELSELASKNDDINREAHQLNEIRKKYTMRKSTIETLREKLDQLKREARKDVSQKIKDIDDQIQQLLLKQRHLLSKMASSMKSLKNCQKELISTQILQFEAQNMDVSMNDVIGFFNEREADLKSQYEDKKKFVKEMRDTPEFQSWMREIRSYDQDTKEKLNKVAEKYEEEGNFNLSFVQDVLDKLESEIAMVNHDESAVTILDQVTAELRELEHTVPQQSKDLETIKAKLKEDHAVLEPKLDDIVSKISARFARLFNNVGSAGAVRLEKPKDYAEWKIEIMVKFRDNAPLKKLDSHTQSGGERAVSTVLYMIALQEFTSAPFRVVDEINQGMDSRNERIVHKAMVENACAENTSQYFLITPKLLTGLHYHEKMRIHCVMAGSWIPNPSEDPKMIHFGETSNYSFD

T3: MBP-tagged Smc5 (WT) (UniProt Q08204 1-1093)
T3 sequence (looked up): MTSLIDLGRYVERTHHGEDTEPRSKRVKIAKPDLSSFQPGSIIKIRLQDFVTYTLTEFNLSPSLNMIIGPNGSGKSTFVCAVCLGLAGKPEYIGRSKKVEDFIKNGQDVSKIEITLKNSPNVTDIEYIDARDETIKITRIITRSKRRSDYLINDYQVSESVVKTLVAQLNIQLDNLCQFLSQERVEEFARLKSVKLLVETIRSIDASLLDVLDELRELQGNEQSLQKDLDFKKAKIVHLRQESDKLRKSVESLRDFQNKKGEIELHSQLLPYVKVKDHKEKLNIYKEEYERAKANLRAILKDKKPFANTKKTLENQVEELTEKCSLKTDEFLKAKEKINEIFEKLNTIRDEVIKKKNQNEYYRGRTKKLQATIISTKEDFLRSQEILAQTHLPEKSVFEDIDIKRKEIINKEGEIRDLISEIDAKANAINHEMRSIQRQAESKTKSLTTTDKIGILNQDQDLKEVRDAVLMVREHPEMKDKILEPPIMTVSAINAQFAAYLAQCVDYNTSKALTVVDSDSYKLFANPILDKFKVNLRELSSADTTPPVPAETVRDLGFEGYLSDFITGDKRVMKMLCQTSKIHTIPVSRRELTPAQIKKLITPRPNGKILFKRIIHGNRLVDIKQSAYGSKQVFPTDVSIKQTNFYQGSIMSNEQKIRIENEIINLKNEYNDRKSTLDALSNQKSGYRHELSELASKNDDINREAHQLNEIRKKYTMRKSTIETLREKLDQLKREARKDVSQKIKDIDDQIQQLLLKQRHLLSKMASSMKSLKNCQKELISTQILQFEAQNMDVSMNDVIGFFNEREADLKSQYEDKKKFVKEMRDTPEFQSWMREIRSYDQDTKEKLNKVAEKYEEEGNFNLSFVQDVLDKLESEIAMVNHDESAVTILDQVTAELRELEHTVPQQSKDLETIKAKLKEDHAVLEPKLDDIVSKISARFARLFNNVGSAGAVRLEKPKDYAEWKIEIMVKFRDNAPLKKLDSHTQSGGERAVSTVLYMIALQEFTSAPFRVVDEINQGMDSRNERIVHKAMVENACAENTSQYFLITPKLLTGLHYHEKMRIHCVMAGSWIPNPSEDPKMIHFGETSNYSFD

B1: His6-Flag-tagged Mph1 (enzyme, budding yeast, UniProt P40562 1-993, looked up)
chain: MASADDYFSDFEDDELDKLYEKAINKSVKETITRRAVPVQKDLHDNVLPGQKTVYEEIQRDVSFGPTHHELDYDALSFYVYPTNYEVRDYQYTIVHKSLFQNTLCAIPTGMGKTFIASTVMLNYFRWTKKAKIIFTAPTRPLVAQQIKACLGITGIPSDQTAILLDKSRKNREEIWANKRVFFATPQVVENDLKRGVLDPKDIVCLVIDEAHRATGSSAYTNVVKFIDRFNSSYRLLALTATPASDLEGVQEVVNNLDISKIEIRTEESMDIVKYMKKRKKEKIEVPLLLEIEDIIEQLGMAVKPVLQQAIELGIYEECDPSQINAFKAMQQSQKIIANPTIPEGIKWRNFFILQLLNNVGQMLKRLKIYGIRTFFNYFQNKCTEFTTKYNLKKSTNKIAAEFYYHPILKNIKNQCENYLSDPKFVGHGKLQCVRDELMDFFQKRGSDSRVIIFTELRESALEIVKFIDSVADDQIRPHIFIGQARAKEGFDEVKYTRKHAPKGRKKVERLHRQEQEKFLEAERTKRAANDKLERSARRTGSSEEAQISGMNQKMQKEVIHNFKKGEYNVLVCTSIGEEGLDIGEVDLIICYDTTSSPIKNIQRMGRTGRKRDGKIVLLFSSNESYKFERAMEDYSTLQALISKQCIDYKKSDRIIPEDIIPECHETLITINDENEIINEMEDVDEVIRYATQCMMGKKVKPKKAITKKKRVQENKKPKKFFMPDNVETSIVSASTLINKFLVNESGGKQLVTSNENPSKKRKIFKALDNLENDSTEEASSSLETEDEEVSDDNNVFIAEGQNGCQKDLETAIIRTGESLTTLKPLHNFERPNMALFVNDCGLPTKIEKNVKDIRGNQHNLEKEKSCTVDKNNMVLSLDDWNFFRNRYIPEGVSFDVEPNFVQYTKGVKVPHCHKVSKIITLFNDESNDNKKRTIDMNYTKCLARGMLRDEKKFVKVNDKSQVDNNSVNHDSSQSFTLSNAELDDILGSDSDF

Columns and labels:
[1] = molecular target: T1, His6-Flag-tagged Mph1 (budding yeast), …; experiment: atomic force microscopy, volume analysis; settings: remark: other sources report otherwise
[2] = molecular target: T1, His6-Flag-tagged Mph1 (budding yeast), …; experiment: atomic force microscopy, volume analysis; settings: remark: other sources report otherwise
[3] = molecular target: Myc-Smc5-Strep-Smc6 complex (UniProt Q08204 1-1093; Q12749 1-1114); experiment: pull-down
Strep-tagged Smc5 = molecular target: T2, Strep-tagged Smc5; experiment: pull-down
MBP-tagged Smc5 (WT) = molecular target: T3, MBP-tagged Smc5 (WT); experiment: pull-down
His6-Flag-tagged Mph1 = molecular target: B1; experiment: pull-down

Sequence of Myc-Smc5-Strep-Smc6 complex (Q12749 whole entry, one chain of several): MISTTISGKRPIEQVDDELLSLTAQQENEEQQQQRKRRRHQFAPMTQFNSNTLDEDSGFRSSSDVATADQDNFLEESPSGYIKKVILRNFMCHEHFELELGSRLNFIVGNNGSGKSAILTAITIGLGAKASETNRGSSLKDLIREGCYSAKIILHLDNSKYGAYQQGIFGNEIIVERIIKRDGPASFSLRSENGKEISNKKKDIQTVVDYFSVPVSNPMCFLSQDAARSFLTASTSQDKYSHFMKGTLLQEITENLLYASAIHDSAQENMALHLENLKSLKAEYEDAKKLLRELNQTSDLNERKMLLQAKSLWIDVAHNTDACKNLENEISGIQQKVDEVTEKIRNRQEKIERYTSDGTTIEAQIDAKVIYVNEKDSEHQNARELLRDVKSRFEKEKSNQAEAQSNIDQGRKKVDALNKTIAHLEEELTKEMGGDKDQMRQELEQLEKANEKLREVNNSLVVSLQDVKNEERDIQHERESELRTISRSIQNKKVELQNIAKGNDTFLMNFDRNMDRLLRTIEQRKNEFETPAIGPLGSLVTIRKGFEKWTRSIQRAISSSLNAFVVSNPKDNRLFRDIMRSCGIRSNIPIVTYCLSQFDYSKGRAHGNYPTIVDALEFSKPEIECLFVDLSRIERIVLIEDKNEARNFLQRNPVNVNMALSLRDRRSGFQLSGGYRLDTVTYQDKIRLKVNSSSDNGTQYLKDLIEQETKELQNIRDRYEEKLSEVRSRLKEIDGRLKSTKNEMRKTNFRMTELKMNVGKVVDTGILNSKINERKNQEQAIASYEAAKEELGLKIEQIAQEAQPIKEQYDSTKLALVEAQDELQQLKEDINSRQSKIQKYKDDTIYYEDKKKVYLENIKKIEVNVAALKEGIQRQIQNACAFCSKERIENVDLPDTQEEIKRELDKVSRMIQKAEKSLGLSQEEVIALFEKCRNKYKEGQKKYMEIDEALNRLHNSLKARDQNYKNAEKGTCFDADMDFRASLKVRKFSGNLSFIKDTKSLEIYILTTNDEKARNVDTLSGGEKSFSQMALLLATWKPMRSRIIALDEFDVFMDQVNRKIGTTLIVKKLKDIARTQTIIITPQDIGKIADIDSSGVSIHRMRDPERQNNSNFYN

Binder	stoichiometry N (Mph1 monomer equivalents) [1]	stoichiometry N (Mph1 monomer equivalents) [2]	binding result [3]	binding result (Strep-tagged Smc5)	binding result (MBP-tagged Smc5 (WT))	binding result (His6-Flag-tagged Mph1)
B1	1.4	7.3 and 12 and 17.4	binds	binds	binds	–
MBP-tagged smc5-ΔNC (residues 149-944) (domain or fragment, UniProt Q08204 149-944, looked up) DYLINDYQVSESVVKTLVAQLNIQLDNLCQFLSQERVEEFARLKSVKLLVETIRSIDASLLDVLDELRELQGNEQSLQKDLDFKKAKIVHLRQESDKLRKSVESLRDFQNKKGEIELHSQLLPYVKVKDHKEKLNIYKEEYERAKANLRAILKDKKPFANTKKTLENQVEELTEKCSLKTDEFLKAKEKINEIFEKLNTIRDEVIKKKNQNEYYRGRTKKLQATIISTKEDFLRSQEILAQTHLPEKSVFEDIDIKRKEIINKEGEIRDLISEIDAKANAINHEMRSIQRQAESKTKSLTTTDKIGILNQDQDLKEVRDAVLMVREHPEMKDKILEPPIMTVSAINAQFAAYLAQCVDYNTSKALTVVDSDSYKLFANPILDKFKVNLRELSSADTTPPVPAETVRDLGFEGYLSDFITGDKRVMKMLCQTSKIHTIPVSRRELTPAQIKKLITPRPNGKILFKRIIHGNRLVDIKQSAYGSKQVFPTDVSIKQTNFYQGSIMSNEQKIRIENEIINLKNEYNDRKSTLDALSNQKSGYRHELSELASKNDDINREAHQLNEIRKKYTMRKSTIETLREKLDQLKREARKDVSQKIKDIDDQIQQLLLKQRHLLSKMASSMKSLKNCQKELISTQILQFEAQNMDVSMNDVIGFFNEREADLKSQYEDKKKFVKEMRDTPEFQSWMREIRSYDQDTKEKLNKVAEKYEEEGNFNLSFVQDVLDKLESEIAMVNHDESAVTILDQVTAELRELEHTVPQQSKDLETIKAKLKEDHAVLEPKLDDIVSKISARFARLF	–	–	–	–	–	binds
